# Measurements reported in the RNAGym collection of RNA variant scans (doi:10.7554/elife.80360).
# B1: CPEB3 Ribozyme (parent)
# chain: GGGGGCCACAGCAGAAGCGUUCACGUCGCGGCCCCUGUCAGAUUCUGGUGAAUCUGCGAAUUCUGCUGU
# Variants of: B1
# Experiment: self-cleavage, relative activity (ratio to wild type); higher = more cleavage; co-transcriptional
row,Variant,self-cleavage
1,GGAGGCCACAGCAGAAGCGUUCACGUCGCGGCACCUGUCAGAUUCUGGUGAAUCUGCGAAUUCUGCUGU [G3A C33A],0.193
2,GGAGGCCACAGCAGAAGCGUUCACGUCGCGGCCCAUGUCAGAUUCUGGUGAAUCUGCGAAUUCUGCUGU [G3A C35A],0.102
3,GGAGGCCACAGCAGAAGCGUUCACGUCGCGGCCCCUGUCAGAUUAUGGUGAAUCUGCGAAUUCUGCUGU [G3A C45A],0.544
4,GGAGGCCACAGCAGAAGCGUUCACGUCGCGGCCCCUGUCAGAUUGUGGUGAAUCUGCGAAUUCUGCUGU [G3A C45G],0.536
5,GGAGGCCACAGCAGAAGCGUUCACGUCGCGGCCCCUGUCAGAUUCUGGUGAAUCUGCGCAUUCUGCUGU [G3A A59C],0.199
6,GGAGGCCACAGCAGAAGCGUUCACAUCGCGGCCCCUGUCAGAUUCUGGUGAAUCUGCGAAUUCUGCUGU [G3A G25A],0.0615
7,GGAGGCCACAGCAGAAGCGUUCACCUCGCGGCCCCUGUCAGAUUCUGGUGAAUCUGCGAAUUCUGCUGU [G3A G25C],0.0661
8,GGAGGUCACAGCAGAAGCGUUCACGUCGCGGCCCCUGUCAGAUUCUGGUGAAUCUGCGAAUUCUGCUGU [G3A C6U],0.245
9,GGAGGGCACAGCAGAAGCGUUCACGUCGCGGCCCCUGUCAGAUUCUGGUGAAUCUGCGAAUUCUGCUGU [G3A C6G],0.0163
10,GGAGGACACAGCAGAAGCGUUCACGUCGCGGCCCCUGUCAGAUUCUGGUGAAUCUGCGAAUUCUGCUGU [G3A C6A],0.0773
11,GGAGGCCACAGCAGAAGCGUUCACGUCGCGGCCCCUGUGAGAUUCUGGUGAAUCUGCGAAUUCUGCUGU [G3A C39G],0.39
12,GGAGGCCACAGCAGAAGCGUUCACGUCGCGGCCUCUGUCAGAUUCUGGUGAAUCUGCGAAUUCUGCUGU [G3A C34U],0.91
13,GGAGGCCACAGCAGAAGCGUUCACGUCGCGGCCCCUGUCACAUUCUGGUGAAUCUGCGAAUUCUGCUGU [G3A G41C],0.198
14,GGAGGCCACAGCAGAAGCGUUUACGUCGCGGCCCCUGUCAGAUUCUGGUGAAUCUGCGAAUUCUGCUGU [G3A C22U],0.0997
15,GGAGGCCACAGCAGAAGCGUUCACGUCGCGGCCCCUGUCAGAUUCUGGUGAAUCUCCGAAUUCUGCUGU [G3A G56C],0.253
16,GGAGGCCACAGCAGAAGCGUUCACGUCGCGGCCCCUGUCAGAUUCUGGUCAAUCUGCGAAUUCUGCUGU [G3A G50C],0.595
17,GGAGGCCACAGCAGAAGCGUUCACGUCGCGGCCCCUGUCAGAUUCUGGUUAAUCUGCGAAUUCUGCUGU [G3A G50U],0.582
18,GGAGGCCACAGCAGAAGCGUUCACGUGGCGGCCCCUGUCAGAUUCUGGUGAAUCUGCGAAUUCUGCUGU [G3A C27G],0.056
19,GGAGGCCACAGCAGAAGCGUUCACGUAGCGGCCCCUGUCAGAUUCUGGUGAAUCUGCGAAUUCUGCUGU [G3A C27A],0.153
20,GGAGGCCACAGCAGAAGCGUUCACGUUGCGGCCCCUGUCAGAUUCUGGUGAAUCUGCGAAUUCUGCUGU [G3A C27U],0.0889

row,Variant,self-cleavage
1,GGAGCCCACAGCAGAAGCGUUCACGUCGCGGCCCCUGUCAGAUUCUGGUGAAUCUGCGAAUUCUGCUGU [G3A G5C],0.123
2,GGAGGCCACAGCAGAAGCGUUCACGUCGCGGCCCCUGUCUGAUUCUGGUGAAUCUGCGAAUUCUGCUGU [G3A A40U],0.379
3,GGAGGCCACAGCAGAAGCGUUCACGUCGCGGCCCCUGUCAGAUUCUGCUGAAUCUGCGAAUUCUGCUGU [G3A G48C],0.698
4,GGAGGCCACAGCAGAAGCGUUCACGUCGCGGCCCCUGUCAGAUUCUGGUGAAUCUGCGAAUUUUGCUGU [G3A C63U],0.627
5,GGAGGCCACAGCAGAAGCGUUCACGUCGCGGCCCCUGUCAGAUUCUGGUGAAUCUGCGAGUUCUGCUGU [G3A A60G],0.32
6,GGAGGCCACAGCAGAAGCGUUCACGUCGCGGCCCCUGUCAGAUUCUGGUGAAUCUGCGACUUCUGCUGU [G3A A60C],0.152
7,GGAGGCCACAGCAGAAGCGUUCACGUCGCGGCCCCUCUCAGAUUCUGGUGAAUCUGCGAAUUCUGCUGU [G3A G37C],0.126
8,GGAGGCCACAGCAGAAGCGUUCACGUCGCGGCCCCUGUCAGAUUCUAGUGAAUCUGCGAAUUCUGCUGU [G3A G47A],0.65
9,GGAGGCCACAGCAGAAGGGUUCACGUCGCGGCCCCUGUCAGAUUCUGGUGAAUCUGCGAAUUCUGCUGU [G3A C18G],0.0813
10,GGAGGCCACAGCAGAAGAGUUCACGUCGCGGCCCCUGUCAGAUUCUGGUGAAUCUGCGAAUUCUGCUGU [G3A C18A],0.066
11,GGAGGCCACAGCAGAAGCGUUCACGUCGCGGCCCCUGUCAGAUUCUGGUGACUCUGCGAAUUCUGCUGU [G3A A52C],0.577
12,GGAGGCCACAGCAGAAGCGUUCACGUCGCGGCCCCUGUCAGAUUCUGGUGGAUCUGCGAAUUCUGCUGU [G3A A51G],0.584
13,GGAGGCAACAGCAGAAGCGUUCACGUCGCGGCCCCUGUCAGAUUCUGGUGAAUCUGCGAAUUCUGCUGU [G3A C7A],0.0813
14,GGAGGCGACAGCAGAAGCGUUCACGUCGCGGCCCCUGUCAGAUUCUGGUGAAUCUGCGAAUUCUGCUGU [G3A C7G],0.112
15,GGAGGCCACAGCAGAAGCGUUCACGUCGCUGCCCCUGUCAGAUUCUGGUGAAUCUGCGAAUUCUGCUGU [G3A G30U],0.107
16,GGAGGCCACAGCAGAAGCGUUCACGUCGCGUCCCCUGUCAGAUUCUGGUGAAUCUGCGAAUUCUGCUGU [G3A G31U],0.154
17,GGAGGCCAUAGCAGAAGCGUUCACGUCGCGGCCCCUGUCAGAUUCUGGUGAAUCUGCGAAUUCUGCUGU [G3A C9U],0.886
18,GGAGGCCACAGCAAAAGCGUUCACGUCGCGGCCCCUGUCAGAUUCUGGUGAAUCUGCGAAUUCUGCUGU [G3A G14A],0.329
19,GGAGGCCACAGCAUAAGCGUUCACGUCGCGGCCCCUGUCAGAUUCUGGUGAAUCUGCGAAUUCUGCUGU [G3A G14U],0.29
